The values below come from article PMC4277400.

This experiment has as its target H1-HFBI: hemagglutinin ectodomain of influenza A/Texas/05/2009 (H1N1) fused to hydrophobin I (Influenza A/Texas/05/2009 (H1N1) virus | Trichoderma reesei) (UniProt P52754). Put plainly: SEC.

Turning to “H1-HFBI: hemagglutinin ectodomain of influenza A/Texas/05/2009 (H1N1) fused to hydrophobin I (from UniProt P52754 23-97)”, the ratio of HMWO/monomer came out at 2.
